Reference: patent US20160193299A1, “MODIFIED NUCLEOSIDE, NUCLEOTIDE, AND NUCLEIC ACID COMPOSITIONS” (Moderna Therapeutics, Inc., priority 2011, published 2016)

What was measured:
[1] = test system: G-CSF; test: Example 18 time course in vivo study, serum G-CSF ELISA; details: mice IV
Method: Formulations, listed in Table 31, were characterized by particle size, zeta potential, and encapsulation.
LNP formulations, shown in Table 31 (above), were administered to mice (n=5) intravenously (IV) at a single modified mRNA dose of 0.5, 0.05 or 0.005 mg/kg. The mice were bled at 8 hours, 24 hours, 72 hours and 6 days after they were administered with G-CSF or EPO modified mRNA formulations to determine protein expression using ELISA.

[2] = test system: hemoglobin (HGB); test: Example 22 non-human primate study, hemoglobin (HGB); format: in vivo, cynomolgus monkey
Method: (§1) LNP formulations, shown in Table 31 (above), were administered to non-human primates (NHP) (cynomolgus monkey) (n=2) as intravenous injection (IV). The NHP were administered a single modified mRNA IV dose of 0.5 mg/kg, 0.05 mg/kg or 0.005 mg/kg of G-CSF or EPO in a dose volume of 0.5 mL/kg. The NHPs were bled before dosing with the modified mRNA LNP formulations to determine protein expression in the serum and a baseline complete blood count. After administration with the G-CSF modified mRNA formulation the NHP were bled at 8, 24, 48 and 72 hours to determined protein expression. After administration with the EPO modified mRNA formulation the NHP were bled at 8, 24, 48, 72 hours and 7 days to determined protein expression.

[3] = test system: hematocrit (HCT); test: Example 22 non-human primate study, hematocrit (HCT); format: in vivo, cynomolgus monkey; details: Female NHP
Method: as §1

B1: G-CSF: human G-CSF mRNA SEQ ID NO: 6, polyA ~160 nt, Cap1, fully modified with 5-methylcytosine and pseudouridine (nucleic acid, listed as Homo sapiens)
chain: GGGAAAUAAGAGAGAAAAGAAGAGUAAGAAGAAAUAUAAGAGCCACCAUGGCCGGUCCCGCGACCCAAAGCCCCAUGAAACUUAUGGCCCUGCAGUUGCUGCUUUGGCACUCGGCCCUCUGGACAGUCCAAGAAGCGACUCCUCUCGGACCUGCCUCAUCGUUGCCGCAGUCAUUCCUUUUGAAGUGUCUGGAGCAGGUGCGAAAGAUUCAGGGCGAUGGAGCCGCACUCCAAGAGAAGCUCUGCGCGACAUACAAACUUUGCCAUCCCGAGGAGCUCGUACUGCUCGGGCACAGCUUGGGGAUUCCCUGGGCUCCUCUCUCGUCCUGUCCGUCGCAGGCUUUGCAGUUGGCAGGGUGCCUUUCCCAGCUCCACUCCGGUUUGUUCUUGUAUCAGGGACUGCUGCAAGCCCUUGAGGGAAUCUCGCCAGAAUUGGGCCCGACGCUGGACACGUUGCAGCUCGACGUGGCGGAUUUCGCAACAACCAUCUGGCAGCAGAUGGAGGAACUGGGGAUGGCACCCGCGCUGCAGCCCACGCAGGGGGCAAUGCCGGCCUUUGCGUCCGCGUUUCAGCGCAGGGCGGGUGGAGUCCUCGUAGCGAGCCACCUUCAAUCAUUUUUGGAAGUCUCGUACCGGGUGCUGAGACAUCUUGCGCAGCCGUGAAGCGCUGCCUUCUGCGGGGCUUGCCUUCUGGCCAUGCCCUUCUUCUCUCCCUUGCACCUGUACCUCUUGGUCUUUGAAUAAAGCCUGAGUAGGAAG
modifications: polyA ~160, Cap1, 5mC/pseudouridine modified
G-CSF protein expression detectable out to ([1]; 0.005 mg/kg and 0.05 mg/kg): 72 h | G-CSF Serum Concentration ([1]; 0.005 mg/kg, 8 hours): 11,550.6 pg/ml | G-CSF Serum Concentration ([1]; 0.005 mg/kg, 24 hours): 5,068.9 pg/ml | G-CSF Serum Concentration ([1]; 0.05 mg/kg, 8 hours): 462,312.5 pg/ml | G-CSF Serum Concentration ([1]; 0.05 mg/kg, 24 hours): 80,903.8 pg/ml | G-CSF Serum Concentration ([1]; 0.5 mg/kg, 8 hours): >1,250,000 pg/ml | G-CSF Serum Concentration ([1]; 0.5 mg/kg, 24 hours): 495,812.5 pg/ml | G-CSF Serum Concentration ([1]; 0.5 mg/kg, 72 hours): 1,325.6 pg/ml | HGB ([2]; Female NHP, 0.005 mg/kg, 14/18 days): 129 g/L | HGB ([2]; Female NHP, 0.005 mg/kg, 24 hours): 127 g/L | HGB ([2]; Female NHP, 0.005 mg/kg, 3 days): 127 g/L | HGB ([2]; Female NHP, 0.005 mg/kg, 7 days): 129 g/L | HGB ([2]; Female NHP, 0.005 mg/kg, Pre-dose): 129 g/L | HGB ([2]; Female NHP, 0.05 mg/kg, 14/18 days): 123 g/L | HGB ([2]; Female NHP, 0.05 mg/kg, 24 hours): 117 g/L | HGB ([2]; Female NHP, 0.05 mg/kg, 3 days): 115 g/L | HGB ([2]; Female NHP, 0.05 mg/kg, 7 days): 116 g/L | HGB ([2]; Female NHP, 0.05 mg/kg, Pre-dose): 129 g/L | HGB ([2]; Female NHP, 0.5 mg/kg, 14/18 days): 113 g/L | HGB ([2]; Female NHP, 0.5 mg/kg, 24 hours): 112 g/L | HGB ([2]; Female NHP, 0.5 mg/kg, 3 days): 114 g/L | HGB ([2]; Female NHP, 0.5 mg/kg, 7 days): 116 g/L | HGB ([2]; Female NHP, 0.5 mg/kg, Pre-dose): 129 g/L | HGB ([2]; Male NHP, 0.005 mg/kg, 14/18 days): 118 g/L | HGB ([2]; Male NHP, 0.005 mg/kg, 24 hours): 117 g/L | HGB ([2]; Male NHP, 0.005 mg/kg, 3 days): 116 g/L | HGB ([2]; Male NHP, 0.005 mg/kg, 7 days): 116 g/L | HGB ([2]; Male NHP, 0.005 mg/kg, Pre-dose): 128 g/L | HGB ([2]; Male NHP, 0.05 mg/kg, 14/18 days): 134 g/L | HGB ([2]; Male NHP, 0.05 mg/kg, 24 hours): 122 g/L | HGB ([2]; Male NHP, 0.05 mg/kg, 3 days): 126 g/L | HGB ([2]; Male NHP, 0.05 mg/kg, 7 days): 126 g/L | HGB ([2]; Male NHP, 0.05 mg/kg, Pre-dose): 137 g/L | HGB ([2]; Male NHP, 0.5 mg/kg, 14/18 days): 98 g/L | HGB ([2]; Male NHP, 0.5 mg/kg, 24 hours): 113 g/L | HGB ([2]; Male NHP, 0.5 mg/kg, 3 days): 118 g/L | HGB ([2]; Male NHP, 0.5 mg/kg, 7 days): 115 g/L | HGB ([2]; Male NHP, 0.5 mg/kg, Pre-dose): 133 g/L | HCT ([3]; 0.005 mg/kg, 14/18 days): 0.42 L/L | HCT ([3]; 0.005 mg/kg, 24 hours): 0.42 L/L | HCT ([3]; 0.005 mg/kg, 3 days): 0.41 L/L | HCT ([3]; 0.005 mg/kg, 7 days): 0.42 L/L | HCT ([3]; 0.005 mg/kg, Pre-dose): 0.42 L/L | HCT ([3]; 0.05 mg/kg, 14/18 days): 0.4 L/L | HCT ([3]; 0.05 mg/kg, 24 hours): 0.4 L/L | HCT ([3]; 0.05 mg/kg, 3 days): 0.39 L/L | HCT ([3]; 0.05 mg/kg, 7 days): 0.4 L/L | HCT ([3]; 0.05 mg/kg, Pre-dose): 0.44 L/L | HCT ([3]; 0.5 mg/kg, 14/18 days): 0.37 L/L | HCT ([3]; 0.5 mg/kg, 24 hours): 0.38 L/L
